The source of these data is doi:10.1101/2020.01.07.896506 (bioRxiv, 2020).

What is called stoichiometry N is a count of units in the complex or per binding partner.

The data set “native gel or EMSA” deals with the molecule itself. The data set can be described thus: native gel or EMSA.
The data set “SEC” deals with the molecule itself. The data set can be described thus: SEC.

B1: recombinant GRXS17 (glutaredoxin GRXS17, Arabidopsis thaliana) (natural protein, UniProt Q9ZPH2 1-488, looked up)
chain: MSGTVKDIVSKAELDNLRQSGAPVVLHFWASWCDASKQMDQVFSHLATDFPRAHFFRVEAEEHPEISEAYSVAAVPYFVFFKDGKTVDTLEGADPSSLANKVGKVAGSSTSAEPAAPASLGLAAGPTILETVKENAKASLQDRAQPVSTADALKSRLEKLTNSHPVMLFMKGIPEEPRCGFSRKVVDILKEVNVDFGSFDILSDNEVREGLKKFSNWPTFPQLYCNGELLGGADIAIAMHESGELKDAFKDLGITTVGSKESQDEAGKGGGVSSGNTGLSETLRARLEGLVNSKPVMLFMKGRPEEPKCGFSGKVVEILNQEKIEFGSFDILLDDEVRQGLKVYSNWSSYPQLYVKGELMGGSDIVLEMQKSGELKKVLTEKGITGEQSLEDRLKALINSSEVMLFMKGSPDEPKCGFSSKVVKALRGENVSFGSFDILTDEEVRQGIKNFSNWPTFPQLYYKGELIGGCDIIMELSESGDLKATLSE
Take B1: in “native gel or EMSA”, the “stoichiometry N” value came out at 2.

B2: recombinant GRXS17-C33S/C179S/C309S/C416S (natural protein, Arabidopsis thaliana, UniProt Q9ZPH2 1-488, looked up)
chain: MSGTVKDIVSKAELDNLRQSGAPVVLHFWASWSDASKQMDQVFSHLATDFPRAHFFRVEAEEHPEISEAYSVAAVPYFVFFKDGKTVDTLEGADPSSLANKVGKVAGSSTSAEPAAPASLGLAAGPTILETVKENAKASLQDRAQPVSTADALKSRLEKLTNSHPVMLFMKGIPEEPRSGFSRKVVDILKEVNVDFGSFDILSDNEVREGLKKFSNWPTFPQLYCNGELLGGADIAIAMHESGELKDAFKDLGITTVGSKESQDEAGKGGGVSSGNTGLSETLRARLEGLVNSKPVMLFMKGRPEEPKSGFSGKVVEILNQEKIEFGSFDILLDDEVRQGLKVYSNWSSYPQLYVKGELMGGSDIVLEMQKSGELKKVLTEKGITGEQSLEDRLKALINSSEVMLFMKGSPDEPKSGFSSKVVKALRGENVSFGSFDILTDEEVRQGIKNFSNWPTFPQLYYKGELIGGCDIIMELSESGDLKATLSE
As to B2, the “stoichiometry N” value in “SEC” was found to be 2.

B3: recombinant GRXS17-C33S (natural protein, Arabidopsis thaliana, UniProt Q9ZPH2 1-488, looked up)
chain: MSGTVKDIVSKAELDNLRQSGAPVVLHFWASWSDASKQMDQVFSHLATDFPRAHFFRVEAEEHPEISEAYSVAAVPYFVFFKDGKTVDTLEGADPSSLANKVGKVAGSSTSAEPAAPASLGLAAGPTILETVKENAKASLQDRAQPVSTADALKSRLEKLTNSHPVMLFMKGIPEEPRCGFSRKVVDILKEVNVDFGSFDILSDNEVREGLKKFSNWPTFPQLYCNGELLGGADIAIAMHESGELKDAFKDLGITTVGSKESQDEAGKGGGVSSGNTGLSETLRARLEGLVNSKPVMLFMKGRPEEPKCGFSGKVVEILNQEKIEFGSFDILLDDEVRQGLKVYSNWSSYPQLYVKGELMGGSDIVLEMQKSGELKKVLTEKGITGEQSLEDRLKALINSSEVMLFMKGSPDEPKCGFSSKVVKALRGENVSFGSFDILTDEEVRQGIKNFSNWPTFPQLYYKGELIGGCDIIMELSESGDLKATLSE
On to B3, for which the binding result in the data set “SEC” is on record as “binds”.
